A word on the Kd: it is the constant that tells how readily two partners part at equilibrium. Read a high Kd as a looser complex. As usually defined, the koff is the first-order rate constant of dissociation. A higher koff goes with a short-lived complex. Broadly, the kon is a measure of how fast the partners come together. A higher kon goes with faster complex formation.

The values below come from publication PMC5422739.

For experiment [1], the target named is tag-free LigB12 mutant D1066A (L. interrogans serovar Pomona). Nature of the experiment: ELISA; tag-free LigB12 wild type or point mutants coated (1 μM/well); His tagged HTE20 or HTE20N titrated 0 to 10 μM; anti-His detection.
Experiment [2] deals with tag-free LigB12 mutant F1054A (L. interrogans serovar Pomona). The description is as above.
For experiment [3], the target named is tag-free LigB12 mutant E1088A (L. interrogans serovar Pomona). Described as above.
In experiment [4] the target is tag-free LigB12 mutant D1061N (L. interrogans serovar Pomona). Described as above.
Experiment [5] deals with LigB12-5-12 chimera (L. interrogans serovar Pomona). Nature of the experiment: ELISA; tag-free LigB5/LigB12 and LigB7/LigB10 chimeras and wild-type domains coated (1 μM/well); 5 μM histidine tagged HTE17-20, HTE20 or HTE20N applied; anti-His detection.
For experiment [6], the target named is LigB12-12-5 chimera (L. interrogans serovar Pomona). The description is as above.
Experiment [7] deals with tag free LigB12 (amino acids 1,047–1,119 in LigB) (L. interrogans serovar Pomona). Description: other fluorescence titration; intrinsic tryptophan fluorescence of LigB12 (2 μM), excitation 295 nm, read at 315 nm, 25°C, PBS; HTE20 or HTE20N titrated 10 to 0.625 μM.
Experiment [8] has the same target. Description: SPR; Biacore 3000; tag free LigB12 immobilised on CM5 (about 1,000 RU); HTE truncates 0 to 5 μM injected in PBS at 30 μL/min, 25°C; 1:1 Langmuir model. A general note: Surface plasmon resonance follows binding to a sensor surface in real time, without labels.
The target of experiment [9] is GST tagged LigB4 (amino acids 307–403 in LigB) (L. interrogans serovar Pomona). Description: ELISA; competitive; 5 μM GST-LigB4 or GST-LigB12 pre-incubated 1 h with HTE17-20, HTE20N or HTE20C (10 to 0.156 μM), then added to WI-38 cell monolayers at 37°C; HRP anti-GST. (ELISA stands for enzyme-linked immunosorbent assay.)
Experiment [10] concerns the target GST tagged LigB12 (amino acids 1,047–1,119 in LigB) (L. interrogans serovar Pomona). Described as above.
Experiment [11] addresses LigA on the surface of L. biflexa serovar Patoc ligA.

B1: histidine tagged HTE20 (domain or fragment)
chain: GIPGAAVPGVVSPEAAAKAAAKAAKYGARPGVGVGGIPTYGVGAGGFPGFGVGVG
With B1, the percent of wild-type LigB12 binding turned out to be 26% in experiment [1]; 15% in experiment [2]; 32% in experiment [4]; 80% in experiment [5]; 90% in experiment [6]. The Kd in experiment [3] amounted to 870 nM.

B2: HTE20 (20th exon of human tropoelastin) (domain or fragment)
chain: B1 chain
With B2, the dissociation constant (Kd) in experiment [7] came to 970 nM. Besides, in experiment [8], the equilibrium dissociation constant (Kd) turned out to be 940 nM, the koff amounted to 0.0032 s⁻¹ and the association rate constant (kon) was found to be 3400 M⁻¹ s⁻¹.

B3: HTE20N (the first 27 residues of HTE20, amino acids 358–384 of HTE) (domain or fragment)
chain: GIPGAAVPGVVSPEAAAKAAAKAAKYG
Turning to B3, the percent decrease of LigB4 binding to WI-38 cells at the highest concentration in experiment [9] was 54%. The percent decrease of LigB12 binding to WI-38 cells at the highest concentration in [10] is 51%. Also, in [11], the inhibition of the adhesion of LigA-expressing L. biflexa (Patoc ligA) to WI-38 cells after pre-incubation with HTE20N, 10 to 0.156 μM; ELISA with hamster anti-L. biflexa sera was found to be 58%. This molecule gave an equilibrium dissociation constant (Kd) in experiment [7] of 820 nM. Moreover, in experiment [8], the Kd worked out at 780 nM, the off-rate (koff) is 0.0021 s⁻¹ and the kon was found to be 2700 M⁻¹ s⁻¹.

B4: histidine tagged HTE20N (domain or fragment)
chain: GIPGAAVPGVVSPEAAAKAAAKAAKYG
Take B4: the percent of wild-type LigB12 binding was determined as 26% in experiment [1]; 15% in experiment [2]; 32% in experiment [4]; 80% in experiment [5]; 90% in experiment [6]. The molecule also came in with a Kd in [3] of 870 nM.
